# Experimental data as given in patent US20140186354A1 (published 2014).
# B1: anti-HER3/HER4 antibody M-05-74 (antibody, V domains shown)
# VH: QVQLQQSGAELAKPGASVKMSCKTSGYTLTDYWIHWVKQRPGQGLEWIGYINPYTGYTESNQKFKDKATLTADKSSNTAYIQLSSLTSEDSAVYYCARPYYYGDYWGQGTTLTVSS
# VL: QIVLTQSPAIMSASPGERVTITCSASSSVSYMHWFQQKPGTSPKLLIYSTSNLASGVPARFSGSGSGTSYSLTISRMEAEDAATYYCQQRSSYPFTFGSGTKLEIK
# notes: Murine monoclonal antibody from hybridoma (supernatant or purified full length); also called M-074; M-5-74
# B2: Recombinant Human Heregulin fragment (HRG) (ligand)
# chain: GPGSSGKKPESAAGSQSPALPPQLKEMKSQESAAGSKLVLRCETSSEYSSLRFKWFKNGNELNRKNKPQNIKIQKKPGKSELRINKASLADSGEYMCKVISKLGNDSASANITIVESNEIITGMPASTEGAYVSSESPIRISVSTEGANTSSSTSTSTTGTSHLVKCAEKEKTFCVNGGECFMVKDLSNPSRYLCKCPNEFTGDRCQNYVMASFYKHLGIEFMEAEELYQK
# notes: also called Heregulin beta (HRG)
# Tests used:
# HER3 ECD-HRG complex = target: T1, HER3 ECD-HRG complex (human, UniProt P21860 20-643); test: SPR Biacore T100
# T1 construct: HER3 ECD pre-incubated with a 5-fold molar excess of Heregulin (open conformation); also called Her-3 ECD/Heregulin complex
# HER4 ECD-HRG complex = target: T2, HER4 ECD-HRG complex (human, UniProt Q15303 26-651); test: SPR Biacore T100
# T2 construct: HER4 ECD pre-incubated with a 5-fold molar excess of Heregulin; also called Her-4 ECD/Heregulin complex
# T2 sequence 1: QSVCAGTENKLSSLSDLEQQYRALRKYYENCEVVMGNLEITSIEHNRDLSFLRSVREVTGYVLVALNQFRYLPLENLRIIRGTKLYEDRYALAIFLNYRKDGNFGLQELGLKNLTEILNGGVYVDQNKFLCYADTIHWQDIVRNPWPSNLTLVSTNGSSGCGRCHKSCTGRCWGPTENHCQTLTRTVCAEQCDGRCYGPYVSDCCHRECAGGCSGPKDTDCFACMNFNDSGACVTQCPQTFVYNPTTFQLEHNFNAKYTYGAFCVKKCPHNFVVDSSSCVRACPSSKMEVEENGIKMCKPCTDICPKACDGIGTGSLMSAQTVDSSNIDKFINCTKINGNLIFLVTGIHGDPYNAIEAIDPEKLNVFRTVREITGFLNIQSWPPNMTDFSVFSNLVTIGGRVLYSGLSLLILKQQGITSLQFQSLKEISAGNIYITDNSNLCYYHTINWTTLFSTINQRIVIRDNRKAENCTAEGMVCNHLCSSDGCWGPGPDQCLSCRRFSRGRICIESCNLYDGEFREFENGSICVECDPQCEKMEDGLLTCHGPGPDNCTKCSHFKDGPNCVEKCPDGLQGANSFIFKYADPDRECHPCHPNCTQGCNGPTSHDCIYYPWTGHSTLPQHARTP
# T2 sequence 2: B2 chain
# [1] = target: T3, human recombinant HER3 ECD (human, UniProt P21860 20-643); test: complex formed in solution before SPR
# T3 construct: 68 kDa; without ligand said to be in the closed conformation; also called human-Her3-ECD
# [2] = target: T4, human recombinant HER4 ECD (human, UniProt Q15303 26-651); test: complex formed in solution before SPR
# T4 sequence: T2 sequence 1
# T1 sequence (P21860 20-643 limits assumed, one chain of several): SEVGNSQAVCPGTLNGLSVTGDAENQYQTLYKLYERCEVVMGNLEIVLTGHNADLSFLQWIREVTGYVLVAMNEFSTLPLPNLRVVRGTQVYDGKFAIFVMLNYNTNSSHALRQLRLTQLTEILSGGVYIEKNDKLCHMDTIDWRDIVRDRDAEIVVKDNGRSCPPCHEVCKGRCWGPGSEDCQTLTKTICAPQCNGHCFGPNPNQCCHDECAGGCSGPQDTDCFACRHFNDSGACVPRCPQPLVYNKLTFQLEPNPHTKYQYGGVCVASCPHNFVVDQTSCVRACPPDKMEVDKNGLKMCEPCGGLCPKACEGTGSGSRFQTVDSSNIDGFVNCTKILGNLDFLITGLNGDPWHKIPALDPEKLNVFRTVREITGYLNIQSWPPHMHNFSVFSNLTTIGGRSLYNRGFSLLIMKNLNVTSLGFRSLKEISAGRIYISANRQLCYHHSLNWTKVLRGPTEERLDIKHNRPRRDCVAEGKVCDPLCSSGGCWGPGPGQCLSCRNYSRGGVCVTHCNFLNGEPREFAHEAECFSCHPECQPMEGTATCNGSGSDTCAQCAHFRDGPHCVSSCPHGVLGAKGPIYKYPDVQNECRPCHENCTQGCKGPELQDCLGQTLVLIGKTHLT
# T3 sequence (P21860 20-643): as the sequence (P21860 20-643 limits assumed, one chain of several) above
Binder,"ratio Ka(+Heregulin)/Ka(-Heregulin), against HER3-ECD (HER3 ECD-HRG complex)","ratio MR(+Heregulin)/MR(-Heregulin), against HER3-ECD (HER3 ECD-HRG complex)","ratio Ka(+Heregulin)/Ka(-Heregulin), against HER4-ECD (HER4 ECD-HRG complex)","ratio MR(+Heregulin)/MR(-Heregulin), against HER4-ECD (HER4 ECD-HRG complex)",binding result [1],binding result [2]
B1,4.85,3,23.9,6,–,–
B2,–,–,–,–,binds,binds
